{"source": "paper PMC8513821", "about": "(Nature, 2021)", "proteins": {"B1": {"name": "HCN1SM (human HCN1 with amino acids 636-865 deleted, N-terminal Twin-strep tag and eGFP) (complex, UniProt O60741 1-890, looked up)", "chain": "MEGGGKPNSSSNSRDDGNSVFPAKASATGAGPAAAEKRLGTPPGGGGAGAKEHGNSVCFKVDGGGGGGGGGGGGEEPAGGFEDAEGPRRQYGFMQRQFTSMLQPGVNKFSLRMFGSQKAVEKEQERVKTAGFWIIHPYSDFRFYWDLIMLIMMVGNLVIIPVGITFFTEQTTTPWIIFNVASDTVFLLDLIMNFRTGTVNEDSSEIILDPKVIKMNYLKSWFVVDFISSIPVDYIFLIVEKGMDSEVYKTARALRIVRFTKILSLLRLLRLSRLIRYIHQWEEIFHMTYDLASAVVRIFNLIGMMLLLCHWDGCLQFLVPLLQDFPPDCWVSLNEMVNDSWGKQYSYALFKAMSHMLCIGYGAQAPVSMSDLWITMLSMIVGATCYAMFVGHATALIQSLDSSRRQYQEKYKQVEQYMSFHKLPADMRQKIHDYYEHRYQGKIFDEENILNELNDPLREEIVNFNCRKLVATMPLFANADPNFVTAMLSKLRFEVFQPGDYIIREGAVGKKMYFIQHGVAGVITKSSKEMKLTDGSYFGEICLLTKGRRTASVRADTYCRLYSLSVDNFNEVLEEYPMMRRAFETVAIDRLDRIGKKNSILLQKFQKDLNTGVFNNQENEILKQIVKHDREMVQAALPRESSSVLNTDPDAEKPRFASNL"}}, "target": "the molecule itself", "assay": "single-molecule photobleaching step counting"}
{"protein": "B1", "values": [{"measurement": "stoichiometry N", "value": 4}]}
